The results in this text go back to the supplement of paper PMC9170038.

This data set deals with MS2 coat protein. Nature of the data set: apparent KD of MS2 coat protein; designed switch direction (-1 OFF switch, 1 ON switch): -1; higher = weaker reporter binding. The gist of the method:
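Each step of the titration lasted 0.8–1.5 h at the lowest concentration and 10–20 min at the highest. The protein, SNAP-549-labelled MS2 coat protein, went from 0.7 or 1.5 nM doubling to 3 µM over RNA switches transcribed on Illumina chips by stalled E. coli RNA polymerase. Normalised cluster fluorescence was curve-fitted, and the per-design median over clusters is given as apparent KD.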

The mark [1] stands for this setting: Eterna round: R95, input ligand: FMN 200 uM.
[2] abbreviates: Eterna round: R95, input ligand: microRNA oligo, concentration not stated.
Where [3] appears, read: Eterna round: R95, input ligand: none.
Setting [4] is: input ligand: microRNA oligo, concentration not stated.

With “AAGGAUAGAGGAUAUACAUAGAUACAGGUUCAUGUAGAACUACAUGAGGAUCACCCAUGUAGAAGGCUAUCCUA [Fiskers Ex 2 - 8] (puzzle: Exclusion 2)”, the “apparent KD of MS2 coat protein” value by setting is: under setting [1], 113 nM; under setting [2], 20.8 nM; under setting [3], 21.1 nM.

Take “AAGGGCUGAGGAUAUGCGCGGGCAAGAUCCUCAAUCCCAAAACAUGAGGAUCACCCAUGUAGAAGGCAGAAAUA [Atedonesle] (puzzle: Exclusion 2)”: the “apparent KD of MS2 coat protein” value under setting [2] came out at 28.3 nM.

As for “AAGGGUGCUUUCAGAACGACAUGAGGAUCACCCAUGUAGACUGAGGAUAUCUACUUCUAAGGACGGGAGAAGGCAGUGUAAUGU [Ex NG3 #71] (Eterna round: R96, puzzle: Exclusion NG 3)”, the “apparent KD of MS2 coat protein” value runs as follows: (input ligand: FMN 200 uM) 25.5 nM; under setting [4], 17.8 nM; (input ligand: none) 22.6 nM.

“AAGGUACAUGAGGAUCACCCAUGUGAGGAUAUCGUUGUUGAGUCUAGAGAUACAAUGUUGAGAAGGUACGGGUA [Eternabot (L2) Solution 94] (Eterna round: R97, puzzle: Exclusion 1)”: the “apparent KD of MS2 coat protein” value is 63.1 nM (input ligand: FMN 200 uM) and 61.2 nM (input ligand: none).

On to “AAGUCCUUGUGGACACAUGAGGAUCACCCAUGUGCGGUCAGCGAGGAUAUCGGUCUAUAAUGUGACGAGAAGGCGCGGACCGAU [Ex NG3 #61] (Eterna round: R96, puzzle: Exclusion NG 3)”, for which the “apparent KD of MS2 coat protein” value amounted to 26.2 nM (input ligand: FMN 200 uM), 15.3 nM under setting [4] and 21.3 nM (input ligand: none).

Consider “AAGUGCAAAGGAUAUACGUGACUUACUCCAAUUGCUACCCGACAUGAGGAUCACCCAUGUAGAAGGUUGCGCAC [Eternabot (Original) Solution 20] (Eterna round: R97, puzzle: Exclusion 2)”, for which the “apparent KD of MS2 coat protein” value reads like this: (input ligand: FMN 200 uM) 34.3 nM; (input ligand: none) 16.6 nM.

Consider “AAUAAACAUGAGGAUCACCCAUGUGAGGAUAUACAGAUUAUAAGAAAAAAAAAAAAAAGUAGAAGGCACAUAUA [Default title] (Eterna round: R96, puzzle: Exclusion 1)”, for which the “apparent KD of MS2 coat protein” value came to 39.6 nM (input ligand: FMN 200 uM), 29.9 nM under setting [4] and 37.6 nM (input ligand: none).

On to “AAUAAAGUAGGAUAUACAUGAGGAUCACCCAUGUCCCACCCGUUACCUAUGACCAUAUGUAGAAGGACUAAUAA [Exy#3] (Eterna round: R97, puzzle: Exclusion 3)”, for which the “apparent KD of MS2 coat protein” value (input ligand: FMN 200 uM) was determined as 80 nM and the “apparent KD of MS2 coat protein” value (input ligand: none) was 59.1 nM.

As to “AAUAACAAGCUGAUCCUUCACAUGAGGAUCACCCAUGUGCUCGUCUUGUAAAGUACUAUCACGAAAGUGAUAGUACA (Eterna round: R97, puzzle: Sensor, turn-off variant 1)”, the “apparent KD of MS2 coat protein” value amounted to 127 nM (input ligand: FMN 200 uM) and 125 nM (input ligand: none).

Consider “AAUAACAGAGGAUAUACUAUUUUAUGUAUUUAUUAUUUUAAACAUGAGGAUCACCCAUGUAGAAGGCUGAAUGA [JMF 54] (puzzle: Exclusion 2)”, for which the “apparent KD of MS2 coat protein” value was determined as 20.6 nM under setting [1], 21.6 nM under setting [2] and 21.5 nM under setting [3].

As for “AAUAACAGAGGAUAUACUAUUUUAUGUGUUUGUUGUUUUGAACAUGAGGAUCACCCAUGUAGAAGGCUGAAUAA [JMF 26] (puzzle: Exclusion 2)”, under setting [2], the “apparent KD of MS2 coat protein” value was 22.1 nM.

As for “AAUAACAGAGGAUAUACUGUUUUAUGUGUUUGUUGUUUUAAACAUGAGGAUCACCCAUGUAGAAGGCUGAAUGA [JMF 60] (puzzle: Exclusion 2)”, under setting [2], the “apparent KD of MS2 coat protein” value is 21.8 nM.

Consider “AAUAAGCGAGGAUAUACACCCGGUAACCGGGAACGGGCGAGACAUGAGGAUCACCCAUGUAGAAGGCGCGUCAA [Ralaente] (Eterna round: R97, puzzle: Exclusion 2)”, for which the “apparent KD of MS2 coat protein” value by setting is: (input ligand: FMN 200 uM) 182 nM; (input ligand: none) 161 nM.

With “AAUAAUAAACAAGCUUUUUACAUGAGGAUCACCCAUGUCCUCUGCUCGUCUUAUCUUGGGCUUUUUUUGGGUUCGGG [-16.4, -45 kcal, A 21%] (Eterna round: R97, puzzle: Sensor, turn-off variant 1)”, the “apparent KD of MS2 coat protein” value is 813 nM (input ligand: FMN 200 uM) and 891 nM (input ligand: none).

On to “AAUAAUGAGAAGGAUAUCACUAGCGAUAGCUAGUGAGAAGGUCUCACAUGAGGAUCACCCAUGUGUUCCAAUAA [Mod1 Ex6/6-A4 by Brourd] (Eterna round: R97, puzzle: Exclusion 6)”, for which the “apparent KD of MS2 coat protein” value came to 417 nM (input ligand: FMN 200 uM) and 221 nM (input ligand: none).

Regarding “AAUAUGUGAGGAUAUCAGGUGUGCUAGCGUACUGGUACAUCUGAGAAGGCACAUGAGGAUCACCCAUGUAUCUU [Mat - Exclusion 4 - Mod of JL - D45] (puzzle: Exclusion 4)”, under setting [2], the “apparent KD of MS2 coat protein” value was determined as 24.3 nM.

With “AAUAUUAGAGGAUAUGCACUUGCACUAACGAAAUCCUCACCACAUGAGGAUCACCCAUGUAGAAGGCUGGUGGU [Eternabot (L2) Solution 65] (Eterna round: R97, puzzle: Exclusion 2)”, the “apparent KD of MS2 coat protein” value was found to be 354 nM (input ligand: FMN 200 uM) and 487 nM (input ligand: none).

Regarding “AAUGAGCUAGGAUAUACAUGAGGAUCACCCAUGUAAAAUAGGUCAUGGAGGAACCACUGUAGAAGGAGCAGGGC [Zagereti] (puzzle: Exclusion 3)”, the “apparent KD of MS2 coat protein” value under setting [2] amounted to 47.1 nM.

Turning to “AAUGAUUGACGAGGAUAUUGUGGUAAAACACGACGAGAAGGCGUCUGUCACAUGAGGAUCACCCAUGUGAGCUUUGUGGAUAGA [Ex NG1 #72] (Eterna round: R96, puzzle: Exclusion NG 1)”, the “apparent KD of MS2 coat protein” value came to 52.3 nM (input ligand: FMN 200 uM), 33.6 nM under setting [4] and 59.8 nM (input ligand: none).

As for “AAUGCGGACAAAGGAUAUUGCGGUGACCGGCUCGGCGUACCGAGCCUACAUGAGGAUCACCCAUGUAAGAAGGUUGUCGCAAAA [Mat - Exclusion NG 2 - Mod of JL - D75] (Eterna round: R96, puzzle: Exclusion NG 2)”, the “apparent KD of MS2 coat protein” value reads like this: (input ligand: FMN 200 uM) 16.6 nM; under setting [4], 13.8 nM; (input ligand: none) 17.5 nM.

For the sequence “AAUUAGUGAGGAUAUACUAACAGUGGUAGUAGAUAGUGGAUGUAGAAGGCACAUGAGGAUCACCCAUGUUAUAA [EX4 #52] (Eterna round: R97, puzzle: Exclusion 4)”, the “apparent KD of MS2 coat protein” value reads like this: (input ligand: FMN 200 uM) 26 nM; (input ligand: none) 43.7 nM.

In the case of “AAUUAUUGAUGAGGAUAUUGUGGUGAAACACGACAAGAAGGCAUUAUACACAUGAGGAUCACCCAUGUGAGCCUGAUGCAUAUA [Ex NG1 #59] (Eterna round: R96, puzzle: Exclusion NG 1)”, under setting [4], the “apparent KD of MS2 coat protein” value was found to be 12.4 nM.

For the sequence “AAUUAUUUUUGAGGAUAUUGUGGUGAAACACCACAAGAAGGCAAGAUACACAUGAGGAUCACCCAUGUGAGCCUGAUGCUUAUG [Ex NG1 #53] (Eterna round: R96, puzzle: Exclusion NG 1)”, the “apparent KD of MS2 coat protein” value under setting [4] amounted to 13.1 nM.

Turning to “AAUUCACAUGAGGAUCACCCAUGUCAGGAUAUGGUUUCACGGGUUUCGGUGCGUGAGGCCAGAAGGGACAGCUA (puzzle: Exclusion 1)”, under setting [2], the “apparent KD of MS2 coat protein” value turned out to be 51.5 nM.

Regarding “AAUUUACAUGAGGAUCACCCAUGUGAGGAUAUGGUUUCGCUGGCCGUAGCCAGUGGAACCAGAAGGCGCAUGAU [Mat - Exclusion 1 - JL Mod - D12] (Eterna round: R97, puzzle: Exclusion 1)”, the “apparent KD of MS2 coat protein” value reads like this: (input ligand: FMN 200 uM) 283 nM; (input ligand: none) 65.2 nM.
